Laboratory results reported in patent US20080274967.
Positions count from the first letter of the chain named.

Key:
[1] = tested on: T1, PEDF AAA variant (S24,114, 227A)
T1 sequence: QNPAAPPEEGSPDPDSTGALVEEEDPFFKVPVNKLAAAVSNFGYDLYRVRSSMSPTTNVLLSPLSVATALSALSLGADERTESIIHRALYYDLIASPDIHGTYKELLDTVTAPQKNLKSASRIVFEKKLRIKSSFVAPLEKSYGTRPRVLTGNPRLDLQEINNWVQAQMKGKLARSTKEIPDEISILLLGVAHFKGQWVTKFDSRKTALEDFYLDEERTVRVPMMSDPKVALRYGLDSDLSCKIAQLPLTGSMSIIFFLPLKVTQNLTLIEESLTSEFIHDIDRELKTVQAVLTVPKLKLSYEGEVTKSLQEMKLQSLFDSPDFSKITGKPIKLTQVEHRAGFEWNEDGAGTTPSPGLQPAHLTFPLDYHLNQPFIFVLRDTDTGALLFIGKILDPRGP

PEDF S24,114E variant = tested on: T2, PEDF S24,114E variant
T2 sequence: T1 sequence with A5E, A95E, A208S

[2] = tested on: T3, PEDF EEE variant (S24,114, 227E)
T3 sequence: T1 sequence with A5E, A95E, A208E

[3] = tested on: T4, Recombinant human pigment epithelium derived factor (rPEDF)
T4 sequence: T1 sequence with A5S, A95S, A208S

[4] = tested on: T5, PEDF EEA variant (S24,114E, 227A)
T5 sequence: T1 sequence with A5E, A95E

[5] = tested on: T6, PEDF AAE variant (S24,114A, 227E)
T6 sequence: T1 sequence with A208E

## Catalytic subunit of protein kinase A (PKA)
[1]
  in vitro phosphorylation by PKA: none of the triple mutants was phosphorylated by PKA
PEDF S24,114E variant
  in vitro phosphorylation by PKA after brief heat treatment of the variant: a brief heat treatment ... restored its phosphorylation by PKA
[2]
  in vitro phosphorylation by PKA: none of the triple mutants was phosphorylated by PKA
[3]
  in vitro phosphorylation by PKA ([γ32P]-ATP, SDS-PAGE, autoradiography): rPEDF served as a good substrate to PKA
[4]
  in vitro phosphorylation by PKA: none of the triple mutants was phosphorylated by PKA
[5]
  in vitro phosphorylation by PKA: none of the triple mutants was phosphorylated by PKA
